Assay results as given in PMC7820495.
Residue numbers refer to the chain shown, from its start. Names and notes keep the numbering of the source.

T1: GST-SVIP (Drosophila SVIP, CG32039), Q8IQC6
T1 chain: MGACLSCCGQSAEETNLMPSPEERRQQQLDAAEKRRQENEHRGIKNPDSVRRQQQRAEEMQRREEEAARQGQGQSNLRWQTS

B1: MBP-VCP^N-D1 (Drosophila VCP, N-terminal and first D1 ATPase domain), Q7KN62 R152H (protein)
chain: MADSKGEDLATAILKRKDRPNRLIVEEAQNDDNSVVSLSQAKMDELQLFRGDTVILKGKRRKETVCIVLSDDTCPDEKIRMNRVVRNNLCVHLSDVVSVQSCPDVKYGKRVRILPIDESTEGVTGNLFEIYLKPYFLEAYRPIHMGDNFIVHAAMRPIEFKVVLTDPEPYCIVAPETVIFCDGDPIKREEEEESLNAVGYDDIGGCRKQLAQIKEMVELPLRHPSLFKAIGVKPPRGILMYGPPGTGKTLIARAVANETGAFFFLINGPEIMSKLAGESESNLRKAFEEAEKNSPAIIFIDEIDAIAPKRDKTHGEVERRIVSQLLTLMDGMKKSSHLIVMAATNRPNSIDPALRRFGRFDREIDIGIPDATGRLEVLRIHTKNMKLHDDVDLEQIAAESHGHVGADLASLCSEAALQQIREKMDLIDLEDDKIDAEVLASLAVTMENFRYAMTKSSPSALRETVVEVPNTTWTDIGGLESVKKELQELVQYPVEHPDKFLKFGMQPSRGVLFYGPPGCGKTLLAKAIANECQANFISVKGPELLTMWFGESEANVRDIFDKARSAAPCVLFFDELDSIAKARGGNVGDAGGAADRVINQILTEMDGMGAKKNVFIIGATNRPDIIDPAILRPGRLDQLIYIPLPDDKSREAILKANLRKSPLAKEVDLTYIAKVTQGFSGADLTEICQRACKLAIRQAIEAEIRREKERAENQNSAMDMDEDDPVPEITSAHFEEAMKFARRSVSDNDIRKYEMFAQTLQQSRGFGQNFRFPGQTGNTSGSGNNLPVNSPGDNGDDDLYS
B2: MBP-VCP^N-D1 (Drosophila VCP, N-terminal and first D1 ATPase domain), Q7KN62 A229E (protein)
chain: B1 chain with H152R, A229E
B3: MBP-VCP^N-D1 (Drosophila VCP, N-terminal and first D1 ATPase domain), Q7KN62 T259A (protein)
chain: B1 chain with H152R, T259A

Biological target: T1, GST-SVIP (Drosophila SVIP, CG32039), …
Assay: in vitro binding titration assay
Conditions: chain shown with the change;; parent: 0.70 uM

| Binder | Kd [nM] |
| --- | --- |
| B1 | 640 |
| B2 | 580 |
| B3 | 1230 |
